Results from US20040048327A1 (GEORGIA TECH RESEARCH, published 2004).
Numbered stars: 1 amine (or outer) side, 2 acyl side, 3 side chain; on linkers, the order of the positions; unused ones are H or OH. Square brackets hold non-standard residues; d marks the D form. Ends that are not written are not given here. * marks the point of attachment. AAsn = aza-asparagine, NC(=O)CN(N[*:1])C(=O)[*:2]; AAsp = aza-Asp, O=C(N(CC(=O)[*:3])N[*:1])[*:2]; azaAsp = O=C(N(CC(=O)[*:3])N[*:1])[*:2]; PhPr = N-terminal cap as named (PhPr); trans‑EP‑CH2CH2Ph = not defined here; azaAsn = NC(=O)CN(N[*:1])C(=O)[*:2]; Hydrocinnamoyl = O=C(CCc1ccccc1)*; (S,S)‑EP = not defined here; Cbz = O=C(OCc1ccccc1)*; NHBn = c1ccc(CN*)cc1

B1: Cbz-Val-AAsp-(S,S)-EP-COOEt (peptide)
peptide: Cbz-Val-[azaAsp]-{(S,S)‑EP‑COOEt}
B2: Cbz-Val-AAsp-(S, S)-EP-COOH (peptide)
peptide: Cbz-Val-[azaAsp]-{(S,S)‑EP‑COOH}
B3: Cbz-Val-AAsp-(trans)-EP-CH2CH2Ph (peptide)
peptide: Cbz-Val-[AAsp]-{(trans)‑EP‑CH2CH2Ph}
B4: Cbz-Val-AAsp-(trans)-EP-Ph-4-Cl (peptide)
peptide: Cbz-Val-[AAsp]-{(trans)‑EP‑Ph‑4‑Cl}
B5: PhPr-Val-Ala-AAsp-trans-EP-CH2CH2Ph (peptide)
peptide: Hydrocinnamoyl-Val-Ala-[AAsp]-{trans‑EP‑CH2CH2Ph}
modifications: reading uncertain; also: printed as PhPr-Val-Ala-AAsp-trans-EP-CH2CH2Ph
B6: PhPr-Val-Ala-AAsp-(S,S)-EP-COOEt (peptide)
peptide: Hydrocinnamoyl-Val-Ala-[AAsp]-{(S,S)‑EP‑COOEt}
B7: PhPr-Val-Ala-AAsp-(R,R)-EP-COOEt (peptide)
peptide: Hydrocinnamoyl-Val-Ala-[AAsp]-{(R,R)‑EP‑COOEt}
B8: PhPr-Val-Ala-AAsp-trans-EP-COOCH2Ph (peptide)
peptide: PhPr-Val-Ala-[AAsp]-{trans‑EP‑COOCH2Ph}
B9: PhPr-Val-Ala-AAsp-(2S, 3S)-EP-COOCH2Ph (peptide)
peptide: PhPr-Val-Ala-[AAsp]-{(2S,3S)‑EP‑COOCH2Ph}
B10: PhPr-Val-Ala-AAsp-(2R, 3R)-EP-COOCH2Ph (peptide)
peptide: Hydrocinnamoyl-Val-Ala-[AAsp]-{(2R,3R)‑EP‑COOCH2Ph}
B11: PhPr-Val-Ala-AAsp-(S,S)-EP-COOCH2CH2Ph (peptide)
peptide: Hydrocinnamoyl-Val-Ala-[AAsp]-{(S,S)‑EP‑COOCH2CH2Ph}
B12: PhPr-Val-Ala-AAsp-(S,S)-EP-CONHCH2CH3 (peptide)
peptide: Hydrocinnamoyl-Val-Ala-[AAsp]-{(S,S)‑EP‑CONHCH2CH3}
B13: PhPr-Val-Ala-AAsp-(S,S)-EP-CONHCH2Ph (peptide)
peptide: Hydrocinnamoyl-Val-Ala-[AAsp]-{(S,S)‑EP‑CONHCH2Ph}
B14: PhPr-Val-Ala-AAsp-(R,R)-EP-CONHCH2Ph (peptide)
peptide: Hydrocinnamoyl-Val-Ala-[AAsp]-{(R,R)‑EP‑CONHCH2Ph}
B15: PhPr-Val-Ala-AAsp-(S,S)-EP-CONHCH2CH2Ph (peptide)
peptide: PhPr-Val-Ala-[AAsp]-{(S,S)‑EP‑CONHCH2CH2Ph}
B16: PhPr-Val-Ala-AAsp-(R,R)-EP-CONHCH2CH2Ph (peptide)
peptide: Hydrocinnamoyl-Val-Ala-[AAsp]-{(R,R)‑EP‑CONHCH2CH2Ph}
B17: PhPr-Val-Ala-AAsp-(S,S)-EP-CONHCH2CH(OH)Ph (peptide)
peptide: PhPr-Val-Ala-[AAsp]-{(S,S)‑EP‑CONHCH2CH(OH)Ph}
B18: PhPr-Val-Ala-AAsp-(R,R)-EP-CONHCH2CH(OH)Ph (peptide)
peptide: Hydrocinnamoyl-Val-Ala-[AAsp]-{(R,R)‑EP‑CONHCH2CH(OH)Ph}
B19: PhPr-Val-Ala-AAsp-(S,S)-EP-CO-Ala-NHCH2Ph (peptide)
peptide: PhPr-Val-Ala-[AAsp]-{(S,S)‑EP‑CO-Ala-NHBn}
B20: PhPr-Val-Ala-AAsp-(R,R)-EP-CO-Ala-NHCH2Ph (peptide)
peptide: Hydrocinnamoyl-Val-Ala-[AAsp]-{(R,R)‑EP‑CO-Ala-NHBn}
B21: PhPr-Val-Ala-AAsp-(S,S)-EP-CO-Leu-NH2 (peptide)
peptide: PhPr-Val-Ala-[AAsp]-{(S,S)‑EP‑CO-Leu-NH2}
B22: PhPr-Val-Ala-AAsp-(S,S)-EP-CO-Phe-NH2 (peptide)
peptide: PhPr-Val-Ala-[AAsp]-{(S,S)‑EP‑CO-Phe-NH2}
B23: PhPr-Val-Ala-AAsp-(R,R)-EP-CO-Phe-NH2 (peptide)
peptide: Hydrocinnamoyl-Val-Ala-[AAsp]-{(R,R)‑EP‑CO-Phe-NH2}
B24: PhPr-Val-Ala-AAsp-(S,S)-EP-CO-Tyr-NH2 (peptide)
peptide: PhPr-Val-Ala-[AAsp]-{(S,S)‑EP‑CO-Tyr-NH2}
B25: Cbz-Glu-Val-AAsp-(2S,3S)-EP-COOEt (peptide)
peptide: Cbz-Glu-Val-[azaAsp]-{(2S,3S)‑EP‑COOEt}
B26: Cbz-Glu-Val-AAsp-(R,R)-EP-CO-Phe-NH2 (peptide)
peptide: Cbz-Glu-Val-[azaAsp]-{(R,R)‑EP‑CO-Phe-NH2}
B27: Cbz-Glu-Val-AAsp-(S,S)-EP-CONHCH2CH2Ph (peptide)
peptide: Cbz-Glu-Val-[azaAsp]-{(S,S)‑EP‑CONHCH2CH2Ph}
B28: Cbz-Asp-Glu-Val-AAsp-(2S, 3S)-EP-COOEt (peptide)
peptide: Cbz-DEVD
modifications: not fully specified (residue 4, C-terminus); printed as Cbz-Asp-Glu-Val-AAsp-(2S, 3S)-EP-COOEt
B29: Cbz-Asp-Glu-Val-AAsp-(2R, 3R)-EP-COOEt (peptide)
peptide: Cbz-DEVD
modifications: not fully specified (residue 4, C-terminus); printed as Cbz-Asp-Glu-Val-AAsp-(2R, 3R)-EP-COOEt
B30: Cbz-Asp-Glu-Val-AAsp-(S,S)-EP-CO-Phe-NH2 (peptide)
peptide: Cbz-DEV[azaAsp]-{(S,S)‑EP‑CO-Phe-NH2}
B31: Cbz-Asp-Glu-Val-AAsp-(S,S)-EP-CONHCH2Ph (peptide)
peptide: Cbz-DEV[azaAsp]-{(S,S)‑EP‑CONHCH2Ph}
B32: Cbz-Asp-Glu-Val-AAsp-(S,S)-EP-COOCH2Ph (peptide)
peptide: Cbz-DEV[azaAsp]-{(S,S)‑EP‑COOCH2Ph}
B33: Cbz-Ile-Glu-Thr-AAsp-(2S, 3S)-EP-COOEt (peptide)
peptide: Cbz-IET[azaAsp]-{(2S,3S)‑EP‑COOEt}
B34: Cbz-Ile-Glu-Thr-AAsp-(2R,3R)-EP-COOEt (peptide)
peptide: Cbz-IET[azaAsp]-{(2R,3R)‑EP‑COOEt}
B35: Cbz-Ile-Glu-Thr-AAsp-(S,S)-EP-COOCH2Ph (peptide)
peptide: Cbz-IET[azaAsp]-{(S,S)‑EP‑COOCH2Ph}
B36: Cbz-Ile-Glu-Thr-AAsp-(R, R)-EP-COOCH2Ph (peptide)
peptide: Cbz-IET[azaAsp]-{(R,R)‑EP‑COOCH2Ph}
B37: Cbz-Ile-Glu-Thr-AAsp-(R, R)-EP-CONHCH2Ph (peptide)
peptide: Cbz-IET[azaAsp]-{(R,R)‑EP‑CONHCH2Ph}
B38: Cbz-Ile-Glu-Thr-AAsp-(S,S)-EP-CO-Ala-NHCH2Ph (peptide)
peptide: Cbz-IET[azaAsp]-{(S,S)‑EP‑CO-Ala-NHBn}
B39: Cbz-Ala-Ala-AAsn-(2R, 3R)-EP-COOEt (peptide)
peptide: Cbz-Ala-Ala-[azaAsn]-{(2R,3R)‑EP‑COOEt}
B40: Cbz-Ala-Ala-AAsn-(S, S)-EP-COOCH2Ph (peptide)
peptide: Cbz-Ala-Ala-[AAsn]-{(S,S)‑EP-COOCH2Ph}
modifications: reading uncertain; also: printed as Cbz-Ala-Ala-AAsn-(S, S)-EP-COOCH2Ph
B41: Cbz-Ala-Ala-AAsn-(S, S)-EP-COOCH2CH2Ph (peptide)
peptide: Cbz-Ala-Ala-[AAsn]-{(S,S)‑EP-COOCH2CH2Ph}
modifications: reading uncertain; also: printed as Cbz-Ala-Ala-AAsn-(S, S)-EP-COOCH2CH2Ph
B42: Cbz-Ala-Ala-AAsn-(S, S)-EP-CON(nBu)2 (peptide)
peptide: Cbz-Ala-Ala-[AAsn]-{(S,S)‑EP-CON(nBu)2}
modifications: reading uncertain; also: printed as Cbz-Ala-Ala-AAsn-(S, S)-EP-CON(nBu)2

Legend:
Assay in all cases: cell-based or functional assay
[1] = target: T1, caspase-3 (UniProt P42574 29-277, limits assumed)
T1 sequence (looked up): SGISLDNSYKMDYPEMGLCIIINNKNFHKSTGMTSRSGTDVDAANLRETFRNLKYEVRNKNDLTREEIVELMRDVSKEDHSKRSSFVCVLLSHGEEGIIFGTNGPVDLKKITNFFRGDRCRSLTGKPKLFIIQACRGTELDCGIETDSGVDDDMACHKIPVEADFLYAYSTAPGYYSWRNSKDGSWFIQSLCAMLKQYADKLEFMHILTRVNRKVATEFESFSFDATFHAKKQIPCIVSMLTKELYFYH

[2] = target: T2, autolytically stable caspase-1 variant (D381 E) (UniProt P29466 120-404, limits assumed)
T2 sequence (looked up): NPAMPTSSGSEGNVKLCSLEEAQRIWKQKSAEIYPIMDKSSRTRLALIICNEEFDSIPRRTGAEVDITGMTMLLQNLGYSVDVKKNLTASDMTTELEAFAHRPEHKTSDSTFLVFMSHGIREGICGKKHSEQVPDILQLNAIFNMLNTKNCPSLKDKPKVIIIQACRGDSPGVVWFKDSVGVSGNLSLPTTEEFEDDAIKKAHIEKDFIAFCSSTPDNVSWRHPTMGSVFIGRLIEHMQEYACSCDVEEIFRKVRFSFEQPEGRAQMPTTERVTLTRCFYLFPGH

[3] = target: T3, schistosome legumain SmAE (Schistosoma mansoni asparaginyl endopeptidase) (Schistosoma mansoni, UniProt P09841 32-291)
T3 sequence (looked up): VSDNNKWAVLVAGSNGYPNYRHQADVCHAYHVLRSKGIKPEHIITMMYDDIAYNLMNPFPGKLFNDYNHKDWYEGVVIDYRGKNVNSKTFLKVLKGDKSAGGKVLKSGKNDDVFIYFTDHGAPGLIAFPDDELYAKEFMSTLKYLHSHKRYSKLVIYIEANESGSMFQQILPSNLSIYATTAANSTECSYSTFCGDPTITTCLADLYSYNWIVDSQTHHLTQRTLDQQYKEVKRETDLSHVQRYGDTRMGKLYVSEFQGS

| Binder | k2 [1] | k2 [2] | IC50 [3] |
| --- | --- | --- | --- |
| B1 | 3650 M⁻¹ s⁻¹ |  |  |
| B2 | 1110 M⁻¹ s⁻¹ |  |  |
| B3 | 310 M⁻¹ s⁻¹ |  |  |
| B4 | 145 M⁻¹ s⁻¹ |  |  |
| B5 |  | 300 M⁻¹ s⁻¹ |  |
| B6 | 1040 M⁻¹ s⁻¹ | 32200 M⁻¹ s⁻¹ |  |
| B7 |  | 6290 M⁻¹ s⁻¹ |  |
| B8 | 680 M⁻¹ s⁻¹ | 18100 M⁻¹ s⁻¹ |  |
| B9 | 1470 M⁻¹ s⁻¹ | 52100 M⁻¹ s⁻¹ |  |
| B10 |  | 1860 M⁻¹ s⁻¹ |  |
| B11 | 2110 M⁻¹ s⁻¹ | 56600 M⁻¹ s⁻¹ |  |
| B12 | 1910 M⁻¹ s⁻¹ |  |  |
| B13 | 1610 M⁻¹ s⁻¹ | 65900 M⁻¹ s⁻¹ |  |
| B14 |  | 1630 M⁻¹ s⁻¹ |  |
| B15 | 1110 M⁻¹ s⁻¹ | 17200 M⁻¹ s⁻¹ |  |
| B16 |  | 950 M⁻¹ s⁻¹ |  |
| B17 | 510 M⁻¹ s⁻¹ | 12300 M⁻¹ s⁻¹ |  |
| B18 |  | 400 M⁻¹ s⁻¹ |  |
| B19 | 260 M⁻¹ s⁻¹ | 13400 M⁻¹ s⁻¹ |  |
| B20 |  | 268 M⁻¹ s⁻¹ |  |
| B21 | 420 M⁻¹ s⁻¹ | 26100 M⁻¹ s⁻¹ |  |

| Binder | k2 [1] | k2 [2] | IC50 [3] |
| --- | --- | --- | --- |
| B22 | 625 M⁻¹ s⁻¹ | 32700 M⁻¹ s⁻¹ |  |
| B23 |  | 330 M⁻¹ s⁻¹ |  |
| B24 | 87 M⁻¹ s⁻¹ | 3240 M⁻¹ s⁻¹ |  |
| B25 | 50500 M⁻¹ s⁻¹ | 58500 M⁻¹ s⁻¹ |  |
| B26 | 470 M⁻¹ s⁻¹ | 1040 M⁻¹ s⁻¹ |  |
| B27 | 27300 M⁻¹ s⁻¹ | 41100 M⁻¹ s⁻¹ |  |
| B28 | 1.07e+06 M⁻¹ s⁻¹ | 11800 M⁻¹ s⁻¹ |  |
| B29 | 464000 M⁻¹ s⁻¹ | 4320 M⁻¹ s⁻¹ |  |
| B30 | 722000 M⁻¹ s⁻¹ | 9250 M⁻¹ s⁻¹ |  |
| B31 | 1.1e+06 M⁻¹ s⁻¹ | 25400 M⁻¹ s⁻¹ |  |
| B32 | 1.92e+06 M⁻¹ s⁻¹ | 54700 M⁻¹ s⁻¹ |  |
| B33 | 4080 M⁻¹ s⁻¹ | 12400 M⁻¹ s⁻¹ |  |
| B34 | 2630 M⁻¹ s⁻¹ | 13300 M⁻¹ s⁻¹ |  |
| B35 | 9540 M⁻¹ s⁻¹ | 45800 M⁻¹ s⁻¹ |  |
| B36 | 3120 M⁻¹ s⁻¹ | 13000 M⁻¹ s⁻¹ |  |
| B37 | 6480 M⁻¹ s⁻¹ | 18100 M⁻¹ s⁻¹ |  |
| B38 | 3050 M⁻¹ s⁻¹ |  |  |
| B39 |  |  | 788 nM |
| B40 |  |  | 47 nM |
| B41 |  |  | 45 nM |
| B42 |  |  | 68 nM |
